# Measured values reported in patent US20050048066A1, “Identification of potential immunodominant acetylcholine receptor alpha subunit” (priority 2000, published 2005).
# What was measured:
# [1] = biological target: solubilized HLA-DR3 (a mix of DRB1*0301 and DRB3*0101) (human); experiment: DELFIA competitive binding vs biotinylated MBP 84-102, solubilized HLA-DR3, pH 5.5
# [2] = biological target: solubilized HLA-DR3 (a mix of DRB1*0301 and DRB3*0101) (human); experiment: competition binding; set-up: unit not given beside the values
# [3] = biological target: solubilized HLA-DR2 (a mix of DRB1*1501 and DRB5*0101) (human); experiment: DELFIA competitive binding vs biotinylated MBP 84-102, solubilized HLA-DR2, pH 5.5
# [4] = biological target: solubilized HLA-DR3 (a mix of DRB1*0301 and DRB3*0101) (human); experiment: competition binding
# [5] = biological target: solubilized HLA-DR2 (a mix of DRB1*1501 and DRB5*0101) (human); experiment: competition binding
Substance,IC50 [1] [µM],IC50 [2],IC50 [3] [µM],IC50 [4] [µM],IC50 [5] [µM]
AChRα peptide 7-22 (from UniProt P02708 27-42),6.15,6153 ?,,,
AChRα peptide 36-49 (from UniProt P02708 56-69),7.3,7299 ?,11,,
AChRα peptide 113-126 (from UniProt P02708 133-146),,,,73,
AChRα peptide 145-163 (from UniProt P02708 165-183),,2002 ?,,2,
AChRα peptide 195-212 (from UniProt P02708 215-232),,6036 ?,,6.04,36.8
AChRα peptide 204-217 (from UniProt P02708 224-237),71.3,,,,
AChRα peptide 310-327 (from UniProt P02708 330-347),,,,,4.19
AChRα peptide 419-437 (from UniProt P02708 439-457),,,,48.9,
